Results on 6 molecules are retold here after patent WO2013091903A1 (dated 2013).

Assay [1] addresses human ORAI1 (CRAC channel membrane protein 1) (human, UniProt Q96D31 1-301). In words: cell-based or functional assay.
Assay [2] has as its target T1, Peptide 1454 (part of the second extracellular loop of human ORAI1) (human).
T1 peptide: PASGAAANVSTSGITPGQA
In words: direct peptide ELISA, peptide coated at 1 ug/ml; (-) indicates binding could not be detected.

The target in assay [3] is T2, Peptide 1415 (entire second extracellular loop of human ORAI1) (human).
T2 peptide: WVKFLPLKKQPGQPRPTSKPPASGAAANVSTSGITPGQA
In words: direct peptide ELISA, peptide coated at 1 ug/ml; (+) indicates binding was detected. For orientation: An ELISA detects its analyte on a solid surface through an enzyme-linked reagent.

The target in assay [4] is T3, Peptide 1455 (part of the second extracellular loop of human ORAI1) (human).
T3 peptide: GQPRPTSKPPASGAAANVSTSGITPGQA
The description is as above.

Chain of human ORAI1 (CRAC channel membrane protein 1) (Q96D31 whole entry, form in doubt): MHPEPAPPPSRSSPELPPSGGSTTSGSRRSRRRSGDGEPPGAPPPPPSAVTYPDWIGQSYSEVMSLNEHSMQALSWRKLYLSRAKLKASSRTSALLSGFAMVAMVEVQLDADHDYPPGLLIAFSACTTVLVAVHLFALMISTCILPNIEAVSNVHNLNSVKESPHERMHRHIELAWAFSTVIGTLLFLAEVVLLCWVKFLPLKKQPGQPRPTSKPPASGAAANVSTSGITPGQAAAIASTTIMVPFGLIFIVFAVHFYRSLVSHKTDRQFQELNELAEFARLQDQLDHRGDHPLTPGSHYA

B1: anti-M-CRAC1415-10F8 A2B6C1 (antibody, IgG1, V domains shown)
VH: QVQLQQSGAELVRPGSSVKISCKASGYAFRSYWMNWVKQRPGQGLEWIGHIYPGDGDTNYNGKFKGKATLTADKSSSTAYMQLSSLTSEDSAVYLCGRGGTTVVVDYWGQGTTLTVSS
VL: DIVMSQSPSSLAVSAGEKVTMSCKSSQSLLNSRTRKNYLAWYQQKPGQSPKLLIYWASTRESGVPDRFTGSGSGTDFTLTISSVQAEDLAVYYCKQSYNLPWTFGGGTKLEIKR
As for B1, the “IC50 of inhibition of PBMC (T cell) proliferation, anti-CD3/CD28 stimulation” value in assay [1] was found to be 1 mg/L.

B2: M-hCRAC1415-15F3A6 (antibody, IgG1, V domains shown)
VH: QVQLQQSGAELVRPGSSVKISCKASGYAFSSYWMNWVKQRPGQGLEWIGHIYPGDADTNYNGKFKGKATLTADKSSSTAYMHLSSLTSEDSAVYFCSRQLGFRYAMDYWGQGTSVTVSS
VL: DIVMSQSPSSLAVSAGEKVTMSCKSSQSLLNSRTRKNYLAWYQQKPGQSPKLLIYWASTRESGVPDRFTGSGSGTDFTLTISSVQAEDLAVYYCKQSYNLRTFGGGTKLEIKR
notes: same variable domains as 17F6A2
Take B2: the figures for the binding result in assay [2], in assay [3] and in assay [4] were “no binding”, “binds” and “binds”, respectively.

B3: M-hCRAC1415-17F1A4B6 (antibody, IgG1, V domains shown)
VH: QVQLQQSGAELVRPGSSVKISCKASGYAFSSYWMNWVKQRPGQGLEWIGHIYPGDADTNYNGKFKGKATLTADKSSSTAYMHLSSLTSEDSAVYFCSRQLGFRYAMDYWGQGTSVTVSS
VL: DIVMSQSPSSLAVSAGEKVTMSCKSSQSLLNSRTRKNYLAWYQQKPGQSPKLLIYWASTRESGVPDRFTGSGSGTDFTLTISSVQAEDLAVYYCKQSYNLRTFGGGTKLEIKR
notes: as for B2
On to B3, for which the figures for the binding result in assay [2], in assay [3] and in assay [4] were “no binding”, “binds” and “binds”, respectively.

B4: M-hCRAC1415-15F45A1 (antibody, IgG1, V domains shown)
VH: QVQLQQSGAELVRPGSSVKISCKASGYAFSSYWMNWVKQRPGQGLEWIGHIYPGDADTNYNGKFKGKATLTADKSSSTAYMHLSSLTSEDSAVYFCSRQLGFRYAMDYWGQGTSVTVSS
VL: DIVMSQSPSSLAVSAGEKVTMSCKSSQSLLNSRTRKNYLAWYQQKPGQSPKLLIYWASTRESGVPDRFTGSGSGTDFTLTISSVQAEDLAVYYCKQSYNLRTFGGGTKLEIKR
notes: as for B2
B4: the binding result in assay [2] was “no binding”; in assay [3], “binds”; in assay [4] it was “binds”.

B5: M-hCRAC1415-17F6A2 (antibody, mouse IgG1, V domains shown)
VH: QVQLQQSGAELVRPGSSVKISCKASGYAFSSYWMNWVKQRPGQGLEWIGHIYPGDADTNYNGKFKGKATLTADKSSSTAYMHLSSLTSEDSAVYFCSRQLGFRYAMDYWGQGTSVTVSS
VL: DIVMSQSPSSLAVSAGEKVTMSCKSSQSLLNSRTRKNYLAWYQQKPGQSPKLLIYWASTRESGVPDRFTGSGSGTDFTLTISSVQAEDLAVYYCKQSYNLRTFGGGTKLEIKR
notes: Mouse monoclonal, kappa light chain; also called Anti-M-CRAC1415-17F6A2
As to B5, the binding result in assay [2] was “no binding”; in assay [3], “binds”; in assay [4] it was “binds”.

B6: M-hCRAC1415-14F74A1 (antibody, mouse IgG1, V domains shown)
VH: QVQLQQSGAELVRPGSSVKISCKASGYAFSSYWMNWVKQRPGQGLEWIGHIYPGDGDTNYNGKFKGKATLTADKSSSTAYMQLSGLTSEDSAVYFCARSGRLRFAMDYWGQGTSVTVSS
VL: DIVMSQSPSSLAVSAGEKVTMSCKSSQSLLNSRTRKNYLAWYQQKPGQSPKLLIYWASTRESGVPDRFTGSGSGTDFTLTISSVQAEDLAVYYCKQSYNLRTFGGGTKLEIQR
notes: Mouse monoclonal, kappa light chain; also called Anti-M-CRAC1415-14F74A1
B6: the binding result in assay [2] is reported as “no binding”; in assay [3], “binds”; in assay [4], “binds”.
